In patent US20230151434A1, “REAWAKENING OF DORMANT TUMOR CELLS BY MODIFIED LIPIDS DERIVED FROM STRESS ACTIVATED NEUTROPHILS” (The Wistar Institute of Anatomy and Biology, priority 2020, published 2023):

B1: S100A8/A9: recombinant S100A8/A9, heterocomplex of two S100 calcium binding proteins (calprotectin) (protein, UniProt P27005 2-89; P31725 2-113, looked up)
Protein S100-A8: PSELEKALSNLIDVYHNYSNIQGNHHALYKNDFKKMVTTECPQFVQNINIENLFRELDINSDNAINFEEFLAMVIKVGVASHKDSHKE
Protein S100-A9: ANKAPSQMERSITTIIDTFHQYSRKEGHPDTLSKKEFRQMVEAQLATFMKKEKRNEALINDIMEDLDTNQDNQLSFEECMMLMAKLIFACHEKLHENNPRGHGHSHGKGCGK

What was measured:
KPr^p53A cells = experiment: In vivo stress induction, NOD/SCID mice injected with KPr^p53A cells and PMN; parameters: species or system mouse
Source text: A total of 2.5×10^4 KPr^p53A cells were intravenously injected to NOD/SCID mice. Beginning 3 weeks after injection, mice were imaged weekly. Luciferin (PerkinElmer) was intraperitoneally injected in mice before imaging according to the manufacturer's instruction. Mice were imaged with IVIS Spectrum In Vivo Imaging System (IVIS, PerkinElmer) to detect luminescent signal coming from growing cancer cells. Mice were put under anesthesia in the induction chamber with isoflurane vaporizer set to 2.5%, at a flow rate of ˜1.5 liters/min. Mice were then transferred in the IVIS imaging stage nose cone inside the IVIS manifold (IVIS manifold nose cones flow set to ˜0.25 LPM). Animals were monitored by video during imaging. Once the images of luciferase/luciferin activity were acquired, the anesthesia was turned off and the animals were returned to their cages. […] Analysis and quantification were performed with IVIS imaging system Living Image Software 4.7.4 (PerkinElmer). […] When signal was detected, mice were sacrificed, and bioluminescent images of the harvested lung were taken. […] If no bioluminescence was detected in lungs after 80 days from last PMN injection, experiments were terminated, and lung tissue were collected. […] Bioluminescence was not detected in any LL2^CisA-injected mice at 3 weeks after injection. Mice were treated with PMN or PMN-MDSC and analyzed as described above. […]

MPO = MPO activity in neutrophils; format: cell-based, mouse; conditions: S100A8/A9 5 μg/ml or LPS 2 μg/ml
Experimental: Neutrophils were isolated from tumor-free mice as described above, and MPO activity was measured with an MPO Fluorometric Activity Assay Kit (Sigma-Aldrich) using a VICTOR spectrophotometer (PerkinElmer).

PMN [1] = experiment: ROS production in PMN (DCFDA, flow cytometry); format: cell-based, mouse
Source text: FIG. 14A-FIG. 14B show the effect of S100A9 on PMN activity. (FIG. 14A) DCFDA measured by flow cytometry in PMN treated with S100A8/A9 or NE. Each dot represents an individual mouse. Mean±SEM are shown. (FIG. 14B) qRT-PCR of Ptges, Ptgs2, and Arg1 expression in mouse PMN treated with S100A8/A9 or NE. Each dot represents an individual mouse. Mean±SEM are shown.

PMN [2] = experiment: LC-ESI-MS analysis of lipids in PMN; format: cell-based, mouse
Experimental: Lipids were extracted by the Folch procedure with slight modifications, under nitrogen atmosphere, at all steps. Briefly, methanol (1 ml) was added to the cell suspension and mixed. After that, chloroform (2 ml) was added, and the mixture was vortexed every 15 min for 1 hour at 0° C. Next, 0.1 M NaCl (0.5 ml) was added to the samples and vortexed, and the chloroform layer was separated by centrifugation (1500 g, 5 min). The lower (organic) layer was collected. The aqueous layer was re-extracted with 1 ml of chloroform/methanol (2:1, v/v). The chloroform (lower) layers were combined, evaporated under a stream of nitrogen, and used for lipidomics analysis. MS analysis of phospholipids was performed on a Fusion Lumos trihybrid-quadrupoleorbitrap-ion trap mass spectrometer (Thermo Fisher Scientific). Phospholipids were separated on a normal phase column [Luna 3 μm Silica (2) 100 A, 150×1.0 mm (Phenomenex)] at a flow rate of 0.065 ml/min on a Thermo Ultimate 3000 HPLC system. The column was maintained at 35° C. The analysis was performed using gradient solvents (A and B) containing 10 mM ammonium formate. Solvent A contained propanol/hexane/water (285:215:5, v/v/v) and solvent B contained propanol/hexane/water (285:215:40, v/v/v). All solvents were LC/MS grade. The column was eluted for 0 to 3 min with a linear gradient from 10 to 37% B and then held for 3 to 15 min at 37% B. The column was eluted for 15 to 23 min with a linear gradient of 37 to 100% B, and then held for 23 to 75 min at 100% B. The column was eluted again for 75 to 76 min with a linear gradient from 100 to 10% B followed by equilibration from 76 to 90 min at 10% B. Analysis was performed in negative ion mode at a resolution of 120,000 for the full MS scan in a data-dependent mode. The scan range for MS analysis was 400 to 1800 m/z (mass/charge ratio) with a maximum injection time of 100 ms using 1 microscan. An isolation window of 1.2 Da was set for the MS and MS2 scans. Capillary spray voltage was set at 3.5 kV, and capillary temperature was 320° C.

| Molecule | growth of KPr^p53A cells in lung and liver of stressed mice injected with PMN (KPr^p53A cells; 1 mg/kg i.p. daily during stress induction) | survival of stressed tumor-bearing mice (KPr^p53A cells; humane end-points, n=10 per group) | MPO enzymatic activity in PMN (MPO) | ROS production in PMN (PMN [1]) | content of oxidatively truncated PC species in PMN (PMN [2]; PMN incubation) | accumulation of oxidized, oxidatively truncated, and lyso-PE in PMN (PMN [2]; overnight treatment) | content of LPE containing saturated and monoenic acyl chains in PMN (PMN [2]; overnight treatment) |
| --- | --- | --- | --- | --- | --- | --- | --- |
| Cc1ccc(OCC(O)C(C)NC(C)C)c2c1CCC2 (stereo not shown) [ICI-118,551] | abrogated this effect | markedly improved survival |  |  |  |  |  |
| B1 |  |  | activated MPO in PMN | no effect on ROS production | No significant changes in the content of oxidatively truncated PC species | caused marked accumulation of oxidized, oxidatively truncated, and lyso-PE in PMN | did not change the content of LPE containing saturated and monoenic acyl chains in PMN |
